The results in this text go back to IntAct's records for PubMed 18682563.

B1: Inner tegument protein (Human herpesvirus 1 (strain 17) (HHV-1)), P10221 (parent)
chain: MADRGLPSEAPVVTTSPAGPPSDGPMQRLLASLAGLRQPPTPTAETANGADDPAFLATAKLRAAMAAFLLSGTAIAPADARDCWRPLLEHLCALHRAHGLPETALLAENLPGLLVHRLVVALPEAPDQAFREMEVIKDTILAVTGSDTSHALDSAGLRTAAALGPVRVRQCAVEWIDRWQTVTKSCLAMSPRTSIEALGETSLKMAPVPLGQPSANLTTPAYSLLFPAPFVQEGLRFLALVSNRVTLFSAHLQRIDDATLTPLTRALFTLALVDEYLTTPERGAVVPPPLLAQFQHTVREIDPAIMIPPLEANKMVRSREEVRVSTALSRVSPRSACAPPGTLMARVRTDVAVFDPDVPFLSSSALAVFQPAVSSLLQLGEQPSAGAQQRLLALLQQTWTLIQNTNSPSVVINTLIDAGFTPSHCTHYLSALEGFLAAGVPARTPTGHGLGEVQQLFGCIALAGSNVFGLAREYGYYANYVKTFRRVQGASEHTHGRLCEAVGLSGGVLSQTLARIMGPAVPTEHLASLRRALVGEFETAERRFSSGQPSLLRETALIWIDVYGQTHWDITPTTPATPLSALLPVGQPSHAPSVHLAAATQIRFPALEGIHPNVLADPGFVPYVLALVVGDALRATCSAAYLPRPVEFALRVLAWARDFGLGYLPTVEGHRTKLGALITLLEPAARGGLGPTMQMADNIEQLLRELYVISRGAVEQLRPLVQLQPPPPPEVGTSLLLISMYALAARGVLQDLAERADPLIRQLEDAIVLLRLHMRTLSAFFECRFESDGRRLYAVVGDTPDRLGPWPPEAMGDAVSQYCSMYHDAKRALVASLASLRSVITETTAHLGVCDELAAQVSHEDNVLAVVRREIHGFLSVVSGIHARASKLLSGDQVPGFCFMGQFLARWRRLSACYQAARAAAGPEPVAEFVQELHDTWKGLQTERAVVVAPLVSSADQRAAAIREVMAHAPEDAPPQSPAADRVVLTSRRDLGAWGDYSLGPLGQTTAVPDSVDLSRQGLAVTLSMDWLLMNELLRVTDGVFRASAFRPLAGPESPRDLEVRDAGNSLPAPMPMDAQKPEAYGHGPRQADREGAPHSNTPVEDDEMIPEDTVAPPTDLPLTSYQ
partner: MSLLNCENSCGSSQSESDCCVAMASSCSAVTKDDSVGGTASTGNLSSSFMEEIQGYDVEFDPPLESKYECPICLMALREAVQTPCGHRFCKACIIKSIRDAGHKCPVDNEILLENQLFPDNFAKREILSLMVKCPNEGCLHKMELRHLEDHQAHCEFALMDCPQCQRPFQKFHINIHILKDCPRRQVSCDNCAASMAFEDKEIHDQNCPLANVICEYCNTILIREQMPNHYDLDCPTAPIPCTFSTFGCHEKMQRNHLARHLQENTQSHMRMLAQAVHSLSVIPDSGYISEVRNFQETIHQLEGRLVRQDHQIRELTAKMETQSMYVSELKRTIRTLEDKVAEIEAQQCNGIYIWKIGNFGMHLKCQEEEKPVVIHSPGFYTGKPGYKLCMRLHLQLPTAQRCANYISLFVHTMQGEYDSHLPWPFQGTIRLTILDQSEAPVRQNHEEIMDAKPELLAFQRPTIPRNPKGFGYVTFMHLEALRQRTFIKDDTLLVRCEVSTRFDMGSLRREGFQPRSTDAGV

The assay covers variants of B1. As to conditions: with traf6_human TRAF6, Q9Y4K3.
Take E1101A: the “effect of a mutation on the interaction” value was “decreasing interaction strength”.
